# Experimental data reported in US20240140995A1.
# Assays:
# [1] = molecular target: GthCol (Geobacillus thermoglucosidasius C-terminal Colicin DNase domain, C36A, H78A, engineered) (Geobacillus thermoglucosidasius); assay: SPR Biacore T200, 37 C, single cycle kinetics; […]
# [2] = molecular target: GthCol (Geobacillus thermoglucosidasius C-terminal Colicin DNase domain, C36A, H78A, engineered) (Geobacillus thermoglucosidasius); assay: SPR Biacore T200, 37 C, single cycle kinetics
# E. coli ColE-7 (E. coli) [3] = molecular target: E. coli ColE-7 (E. coli) (UniProt Q47112); assay: SPR Biacore T200, 37 C, single cycle kinetics
# E. coli ColE-7 (E. coli) [4] = molecular target: E. coli ColE-7 (E. coli) (UniProt Q47112); assay: SPR Biacore T200, 37 C, single cycle kinetics; biotinylated immunity protein on streptavidin sensor, colicin analyte 1.1-90 nM
substance,measurement,setting,value
"GthIM (Geobacillus thermoglucosidasius immunity protein, C18A, engineered), singly biotinylated",GthCol concentration at which GthIM saturation is achieved,[1],3 nM
same,Kd,[1],< 0.2 pM
same,"MR (Molar Ratio, binding stoichiometry)",[1],1.1
same,koff,[1],< 1e-05 s⁻¹
same,kon,[1],> 5e+07 M⁻¹ s⁻¹
same,fold stronger than the IM7/ColE7 interaction,[2],> 30 fold
same,complex half-life t/2-diss,E. coli ColE-7 (E. coli) [3],< 1 min
same,fold less affinity than GthIM/GthCol,E. coli ColE-7 (E. coli) [3],65000 fold
same,"MR (Molar Ratio, binding stoichiometry)",E. coli ColE-7 (E. coli) [4],1.2
